Assay results: publication PMC11364024, “Binding structures of SERF1a with NT17-polyQ peptides of huntingtin exon 1 revealed by SEC-SWAXS, NMR and molecular simulation” (IUCrJ, 2024)
Changes are numbered by the printed parent chain.

Columns and labels:
[1] = molecular target: T1, human small EDRK-rich factor 1a (SERF1a) (human); assay: SEC-SWAXS (size-exclusion column with small- and wide-angle X-ray scattering, UV-Vis absorption and dRI); mixtures of SERF1a with NT17 or with Htt-3 at 1:2 molar ratio, eluted together; sodium phosphate buffer pH 7.4; 283 K; composition of the complex from I0, UV-Vis absorption at 214 nm and dRI over the elution peak; conditions: both partners purified
T1 construct: source: purified from the human SERF1a gene as reported previously (Tsai et al., 2023)
T1 chain: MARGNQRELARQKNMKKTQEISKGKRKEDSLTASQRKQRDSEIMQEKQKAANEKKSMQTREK

[2] = molecular target: the molecule itself; assay: SEC-SWAXS (size-exclusion column with small- and wide-angle X-ray scattering, UV-Vis absorption and dRI); single-component samples (SERF1a 4.1 mg/ml; Htt-1 10 mg/ml injected, diluted ca. 2-4 fold on the column); sodium phosphate buffer pH 7.4; 283 K; aggregation number from zero-angle intensity I0 and the concentration from optical data

B1: NT17 (the N-terminal first 17 amino acids of the Httex1 protein) (peptide)
peptide: MATLEKLMKAFESLKSF
notes: huntingtin exon 1 (Httex1), N-terminal first 17 amino acids; also called NT17 fragment; source: synthetic peptide (peptide synthesis core, Genomics Research Center, Academia Sinica)
**Q.** For B1, which “stoichiometry N” value [1] is on record?
**A.** Its value is ~2 NT17 per SERF1a.

B2: Htt-1 (NT17-polyQ peptide of 33 amino acids with four leucines in the polyQ region) (peptide)
peptide: MATLEKLMKAFESLKSFLQQLQQQLQQLQQQYK
notes: huntingtin exon 1: NT17 followed by a 14-residue polyQ region in which four leucines replace the residues of position a/d to enhance alpha-helix formation; two C-terminal residues added after the polyQ region; not of huntingtin; source: synthetic peptide (peptide synthesis core, Genomics Research Center, Academia Sinica)
**Q.** For B2, which “stoichiometry N” value [2] is on record?
**A.** Its value is 2.

B3: Htt-3 (NT17-polyQ peptide of 33 amino acids with four prolines in the polyQ region) (peptide)
peptide: B2 peptide with L18P, L21P, L25P, L28P
notes: huntingtin exon 1: NT17 followed by a 14-residue polyQ region in which the positions a/d are substituted by four prolines to suppress alpha-helix formation; two C-terminal residues added after the polyQ region; not of huntingtin; source: synthetic peptide (peptide synthesis core, Genomics Research Center, Academia Sinica)
**Q.** For B3, which “stoichiometry N” value [1] is on record?
**A.** Its value is ~1 Htt-3 per SERF1a.
